Source: publication PMC10929410

Biological target: human Toll-like receptor 5 on HEK-Blue-hTLR5 reporter cells (human) (UniProt O60602)
Chain of UniProt O60602 (O60602 21-858): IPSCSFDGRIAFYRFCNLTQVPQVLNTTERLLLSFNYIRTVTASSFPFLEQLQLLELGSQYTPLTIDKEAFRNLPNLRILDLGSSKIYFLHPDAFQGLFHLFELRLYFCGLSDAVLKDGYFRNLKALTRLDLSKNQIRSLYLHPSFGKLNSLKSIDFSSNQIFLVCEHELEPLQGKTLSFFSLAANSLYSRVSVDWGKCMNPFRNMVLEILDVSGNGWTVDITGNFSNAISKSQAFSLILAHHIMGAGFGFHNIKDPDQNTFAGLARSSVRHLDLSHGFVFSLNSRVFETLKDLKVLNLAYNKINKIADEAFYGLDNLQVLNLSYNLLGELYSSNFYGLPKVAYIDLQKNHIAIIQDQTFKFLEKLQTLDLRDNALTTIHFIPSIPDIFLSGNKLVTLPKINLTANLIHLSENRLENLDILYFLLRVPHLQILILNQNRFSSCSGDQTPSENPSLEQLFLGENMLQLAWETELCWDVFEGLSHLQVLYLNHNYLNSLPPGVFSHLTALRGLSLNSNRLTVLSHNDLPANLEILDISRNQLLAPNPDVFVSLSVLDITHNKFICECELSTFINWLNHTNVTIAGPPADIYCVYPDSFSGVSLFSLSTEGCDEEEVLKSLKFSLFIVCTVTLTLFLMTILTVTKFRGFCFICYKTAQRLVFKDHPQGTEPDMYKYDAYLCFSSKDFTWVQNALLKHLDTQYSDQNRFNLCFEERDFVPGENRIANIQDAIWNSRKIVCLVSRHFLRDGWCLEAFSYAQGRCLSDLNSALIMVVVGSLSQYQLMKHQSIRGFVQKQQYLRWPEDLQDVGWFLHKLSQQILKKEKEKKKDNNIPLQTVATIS

Row | Molecule | EC50 of TLR5 activation (SEAP, OD 620 nm) in HEK-Blue-hTLR5 reporter cells, 10 pg/mL to 10 µg/mL, 24 h | EC50 of TLR5 activation (SEAP, OD 620 nm) in HEK-Blue-hTLR5 reporter cells, 10 pg/mL to 10 µg/mL, 24 h; the sentence prints the label dnFlaA, taken as dnFlaB from the context of Fig. 4D
1 | deglycosylated native FlaA (from UniProt P21184 1-394) (natural protein) | 0.291 µg/mL | 
2 | native FlaA (flagellin type A, glycosylated) of Pseudomonas aeruginosa strain PAK (from UniProt P21184 1-394) (natural protein) | 0.0021 µg/mL | 
3 | recombinant FlaA (non-glycosylated) (from UniProt P21184 1-394) (natural protein) | 0.0415 µg/mL | 
4 | native FlaB (flagellin type B, glycosylated) of Pseudomonas aeruginosa strain PAO1 (natural protein, simple O-glycan without rhamnose, attached via deoxyhexosamine) MALTVNTNIASLNTQRNLNASSNDLNTSLQRLTTGYRINSAKDDAAGLQISNRLSNQISGLNVATRNANDGISLAQTAEGALQQSTNILQRIRDLALQSANGSNSDADRAALQKEVAAQQAELTRISDTTTFGGRKLLDGSFGTTSFQVGSNAYETIDISLQNASASAIGSYQVGSNGAGTVASVAGTATASGIASGTVNLVGGGQVKNIAIAAGDSAKAIAEKMDGAIPNLSARARTVFTADVSGVTGGSLNFDVTVGSNTVSLAGVTSTQDLADQLNSNSSKLGITASINDKGVLTITSATGENVKFGAQTGTATAGQVAVKVQGSDGKFEAAAKNVVAAGTAATTTIVTGYVQLNSPTAYSVSGTGTQASQVFGNASAAQKSSVASVDISTADGAQNAIAVVDNALAAIDAQRADLGAVQNRFKNTIDNLTNISENATNARSRIKDTDFAAETAALSKNQVLQQAGTAILAQANQLPQAVLSLLR | 0.0444 µg/mL | 
5 | recombinant FlaB (non-glycosylated) (natural protein) MALTVNTNIASLNTQRNLNASSNDLNTSLQRLTTGYRINSAKDDAAGLQISNRLSNQISGLNVATRNANDGISLAQTAEGALQQSTNILQRIRDLALQSANGSNSDADRAALQKEVAAQQAELTRISDTTTFGGRKLLDGSFGTTSFQVGSNAYETIDISLQNASASAIGSYQVGSNGAGTVASVAGTATASGIASGTVNLVGGGQVKNIAIAAGDSAKAIAEKMDGAIPNLSARARTVFTADVSGVTGGSLNFDVTVGSNTVSLAGVTSTQDLADQLNSNSSKLGITASINDKGVLTITSATGENVKFGAQTGTATAGQVAVKVQGSDGKFEAAAKNVVAAGTAATTTIVTGYVQLNSPTAYSVSGTGTQASQVFGNASAAQKSSVASVDISTADGAQNAIAVVDNALAAIDAQRADLGAVQNRFKNTIDNLTNISENATNARSRIKDTDFAAETAALSKNQVLQQAGTAILAQANQLPQAVLSLLR | 104 | 
6 | deglycosylated native FlaB (natural protein, treated with trifluoromethanesulfonic acid to remove the O-glycans) MALTVNTNIASLNTQRNLNASSNDLNTSLQRLTTGYRINSAKDDAAGLQISNRLSNQISGLNVATRNANDGISLAQTAEGALQQSTNILQRIRDLALQSANGSNSDADRAALQKEVAAQQAELTRISDTTTFGGRKLLDGSFGTTSFQVGSNAYETIDISLQNASASAIGSYQVGSNGAGTVASVAGTATASGIASGTVNLVGGGQVKNIAIAAGDSAKAIAEKMDGAIPNLSARARTVFTADVSGVTGGSLNFDVTVGSNTVSLAGVTSTQDLADQLNSNSSKLGITASINDKGVLTITSATGENVKFGAQTGTATAGQVAVKVQGSDGKFEAAAKNVVAAGTAATTTIVTGYVQLNSPTAYSVSGTGTQASQVFGNASAAQKSSVASVDISTADGAQNAIAVVDNALAAIDAQRADLGAVQNRFKNTIDNLTNISENATNARSRIKDTDFAAETAALSKNQVLQQAGTAILAQANQLPQAVLSLLR |  | 0.442 µg/mL
